Results reported in IntAct's records for PubMed 19037316.

B1: Gibberellin receptor GID1 (Oryza sativa subsp. japonica (Rice)), Q6L545 (parent)
chain: MAGSDEVNRNECKTVVPLHTWVLISNFKLSYNILRRADGTFERDLGEYLDRRVPANARPLEGVSSFDHIIDQSVGLEVRIYRAAAEGDAEEGAAAVTRPILEFLTDAPAAEPFPVIIFFHGGSFVHSSASSTIYDSLCRRFVKLSKGVVVSVNYRRAPEHRYPCAYDDGWTALKWVMSQPFMRSGGDAQARVFLSGDSSGGNIAHHVAVRAADEGVKVCGNILLNAMFGGTERTESERRLDGKYFVTLQDRDWYWKAYLPEDADRDHPACNPFGPNGRRLGGLPFAKSLIIVSGLDLTCDRQLAYADALREDGHHVKVVQCENATVGFYLLPNTVHYHEVMEEISDFLNANLYY
partner: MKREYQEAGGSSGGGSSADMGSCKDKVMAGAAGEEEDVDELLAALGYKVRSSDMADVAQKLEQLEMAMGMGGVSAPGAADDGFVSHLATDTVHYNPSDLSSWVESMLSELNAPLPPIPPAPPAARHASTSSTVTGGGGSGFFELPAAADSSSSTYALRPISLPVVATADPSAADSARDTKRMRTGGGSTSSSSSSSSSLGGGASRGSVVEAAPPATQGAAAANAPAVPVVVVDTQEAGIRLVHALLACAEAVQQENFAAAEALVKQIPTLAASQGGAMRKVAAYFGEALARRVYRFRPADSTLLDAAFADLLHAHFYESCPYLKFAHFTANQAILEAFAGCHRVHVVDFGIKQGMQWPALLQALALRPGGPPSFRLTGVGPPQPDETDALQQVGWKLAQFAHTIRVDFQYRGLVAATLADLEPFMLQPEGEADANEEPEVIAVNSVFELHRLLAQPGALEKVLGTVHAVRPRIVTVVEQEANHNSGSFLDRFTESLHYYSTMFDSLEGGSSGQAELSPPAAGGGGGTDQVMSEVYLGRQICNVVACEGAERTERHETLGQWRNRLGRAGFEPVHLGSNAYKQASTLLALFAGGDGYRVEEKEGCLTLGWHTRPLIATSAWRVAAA

Variants of: B1
Conditions: with slr1_orysj SLR1, Q7G7J6

Row | effect of a mutation on the interaction | Variant
1 | disrupting interaction | L18A;W21A;L29A;I33A;L45A;Y48A
